Results published in publication PMC3568192 (Journal of molecular biology, 2012).
Substitutions are numbered along the chain they refer to. Numbers in names are those of the source. Where no end group is shown, it is not given here.

Columns and labels:
[1] = biological target: fluorescently labeled wild-type CPB-1(19-80) (C. elegans) (UniProt Q03571); assay: fluorescence polarisation
FBF-1 (164-566) [2] = biological target: T1, FBF-1 (164-566) (C. elegans, UniProt Q9N5M6 164-566); assay: cross-linking
T1 sequence (looked up): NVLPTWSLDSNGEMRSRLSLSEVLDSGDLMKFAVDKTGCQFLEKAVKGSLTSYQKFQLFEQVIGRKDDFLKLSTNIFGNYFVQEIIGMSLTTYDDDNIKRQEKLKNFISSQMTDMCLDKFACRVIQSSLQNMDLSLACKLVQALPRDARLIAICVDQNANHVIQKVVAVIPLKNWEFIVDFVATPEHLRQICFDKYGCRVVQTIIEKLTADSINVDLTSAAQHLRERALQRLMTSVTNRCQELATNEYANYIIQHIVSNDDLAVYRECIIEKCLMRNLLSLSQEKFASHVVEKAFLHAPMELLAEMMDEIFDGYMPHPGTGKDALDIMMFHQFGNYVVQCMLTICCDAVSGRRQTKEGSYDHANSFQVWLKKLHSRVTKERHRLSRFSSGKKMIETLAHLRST

FBF-2 (164-566) [3] = biological target: T2, FBF-2 (164-566) (C. elegans, UniProt Q09312 164-566); assay: cross-linking
T2 sequence (looked up): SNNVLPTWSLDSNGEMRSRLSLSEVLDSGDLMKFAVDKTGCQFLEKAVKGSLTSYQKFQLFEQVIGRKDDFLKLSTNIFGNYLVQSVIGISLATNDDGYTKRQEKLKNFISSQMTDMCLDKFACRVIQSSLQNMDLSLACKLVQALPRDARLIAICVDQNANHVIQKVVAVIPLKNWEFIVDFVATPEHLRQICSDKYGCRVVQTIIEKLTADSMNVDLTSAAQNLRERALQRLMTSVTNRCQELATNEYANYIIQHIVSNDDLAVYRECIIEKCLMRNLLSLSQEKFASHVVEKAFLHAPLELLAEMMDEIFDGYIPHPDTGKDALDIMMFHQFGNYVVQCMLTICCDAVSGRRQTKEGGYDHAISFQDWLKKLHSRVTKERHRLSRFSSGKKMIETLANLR

FBF-2 (164-575) [4] = biological target: T3, FBF-2 (164-575) (C. elegans, UniProt Q09312 164-575); assay: fluorescence polarisation
T3 sequence (looked up): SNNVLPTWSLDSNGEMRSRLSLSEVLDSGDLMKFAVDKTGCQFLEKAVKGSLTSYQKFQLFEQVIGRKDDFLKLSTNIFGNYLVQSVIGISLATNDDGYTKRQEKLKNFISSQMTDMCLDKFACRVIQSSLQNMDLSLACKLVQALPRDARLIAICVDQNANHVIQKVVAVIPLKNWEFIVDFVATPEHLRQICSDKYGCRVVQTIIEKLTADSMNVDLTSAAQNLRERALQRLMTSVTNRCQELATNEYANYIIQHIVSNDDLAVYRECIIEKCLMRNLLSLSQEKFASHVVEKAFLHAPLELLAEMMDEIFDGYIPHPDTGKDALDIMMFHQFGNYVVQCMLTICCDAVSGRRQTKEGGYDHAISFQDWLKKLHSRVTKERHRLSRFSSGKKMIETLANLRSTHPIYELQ

FBF-1 (164-566) [5] = biological target: T1, FBF-1 (164-566); assay: pull-down
FBF-2 (164-566) [6] = biological target: T2, FBF-2 (164-566); assay: pull-down
FBF-2 (164-575) [7] = biological target: T3, FBF-2 (164-575); assay: NMR, [15N,1H]-HSQC free against bound
FBF-2 (164-575) [8] = biological target: T4, FBF-2 (164-575) (Caenorhabditis elegans, UniProt Q09312 164-575); assay: EMSA
T4 sequence: T3 sequence (looked up)

[9] = biological target: T5, FBF-2 (164-575);MBP-CPB-1 (1-80) (Caenorhabditis elegans;Caenorhabditis …, UniProt Q09312;Q03571 164-575;1-80, |); assay: EMSA
T5 sequence 1: T3 sequence (looked up)
T5 sequence 2: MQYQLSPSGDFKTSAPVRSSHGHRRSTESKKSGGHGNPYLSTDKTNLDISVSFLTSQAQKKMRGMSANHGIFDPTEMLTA

B1: FBF-2 (164-575) (domain or fragment)
chain: T3 sequence (looked up)
Kd [1]: 49 nM

B2: FBF-2 (164-575) Y479A (domain or fragment)
chain: T3 sequence (looked up) with Y316A
fold increase in Kd relative to wild-type FBF [1]: > 60 fold

B3: FBF-2 (164-575) I480A (domain or fragment)
chain: T3 sequence (looked up) with I317A
Kd [1]: 778 nM

B4: FBF-2 (164-575) T485A (domain or fragment)
chain: T3 sequence (looked up) with T322A
Kd [1]: 1260 nM

B5: CPB-1(1-80) (domain or fragment, C. elegans, UniProt Q03571 1-80, looked up)
chain: T5 sequence 2
stoichiometry N (FBF-1 (164-566) [2]): 1
stoichiometry N (FBF-2 (164-566) [3]): 1

B6: CPB-1(19-80) (domain or fragment, C. elegans, UniProt Q03571 19-80, looked up)
chain: SSHGHRRSTESKKSGGHGNPYLSTDKTNLDISVSFLTSQAQKKMRGMSANHGIFDPTEMLTA
IC50 (FBF-2 (164-575) [4]): 1150 ± 50 nM

B7: CPB-1(19-80) I49A (domain or fragment, C. elegans, UniProt Q03571 19-80, looked up)
chain: B6 chain with I31A
binding result (FBF-2 (164-575) [4]): binds

B8: CPB-1(19-80) K44A (domain or fragment, C. elegans, UniProt Q03571 19-80, looked up)
chain: B6 chain with K26A
binding result (FBF-2 (164-575) [4]): binds

B9: CPB-1(19-80) L40A (domain or fragment, C. elegans, UniProt Q03571 19-80, looked up)
chain: B6 chain with L22A
binding result (FBF-2 (164-575) [4]): binds

B10: CPB-1(19-80) L47A (domain or fragment, C. elegans, UniProt Q03571 19-80, looked up)
chain: B6 chain with L29A
binding result (FBF-2 (164-575) [4]): binds

B11: CPB-1(19-80) T45A (domain or fragment, C. elegans, UniProt Q03571 19-80, looked up)
chain: B6 chain with T27A
binding result (FBF-2 (164-575) [4]): binds

B12: CPB-1(32-60) (domain or fragment, C. elegans, UniProt Q03571 32-60, looked up)
chain: SGGHGNPYLSTDKTNLDISVSFLTSQAQK
binding result (FBF-1 (164-566) [5]): binds
binding result (FBF-2 (164-566) [6]): binds

B13: 15N-labeled CPB-1(32-80) (domain or fragment, C. elegans, UniProt Q03571 32-80, looked up)
chain: SGGHGNPYLSTDKTNLDISVSFLTSQAQKKMRGMSANHGIFDPTEMLTA
modifications: also: 15N labeled
binding result (FBF-2 (164-575) [7]): binds

B14: cyb-1 RNA (ssRNA)
RNA: CGAAAUAAACAUUUUGUACCAUUCAGUC
Kd (FBF-2 (164-575) [8]): 24 nM
Kd [9]: 5.8 nM
